From paper PMC8488193, “Characterization of a Novel Glutamine Synthetase From Trichinella spiralis and Its Participation in Larval Acid Resistance, Molting, and Development” (Frontiers in Cell and Developmental Biology, 2021)

How the values were obtained:
rTsGS = molecular target: T1, rTsGS (Trichinella spiralis, UniProt A0ABR3KY69); assay: phosphate release, absorbance at […] nm, with inhibitor; type: biochemical; settings: substrates Glu, ATP, NH4+
T1 construct: gene TSPI_06310
T1 sequence (A0ABR3KY69 1-365): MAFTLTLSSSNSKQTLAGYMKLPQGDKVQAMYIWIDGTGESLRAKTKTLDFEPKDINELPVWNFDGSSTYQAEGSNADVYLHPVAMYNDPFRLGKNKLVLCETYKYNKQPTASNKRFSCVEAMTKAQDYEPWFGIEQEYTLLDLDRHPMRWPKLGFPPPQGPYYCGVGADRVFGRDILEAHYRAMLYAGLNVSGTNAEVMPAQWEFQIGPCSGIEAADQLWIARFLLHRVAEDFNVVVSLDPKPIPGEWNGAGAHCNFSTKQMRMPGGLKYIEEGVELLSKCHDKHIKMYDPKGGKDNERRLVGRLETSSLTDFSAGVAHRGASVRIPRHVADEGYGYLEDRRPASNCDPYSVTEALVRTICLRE

N[C@@H](CCC(=O)O)C(=O)O = assay: purified protein; type: biochemical, Trichinella spiralis; settings: pH 7.0, 45 °C, 100 mM Mg2+, ATP and NH4+ as co-substrates, range 0.5-5 mM
N = assay: purified protein; settings: pH 7.0, 45 °C, 100 mM Mg2+, glutamate and ATP as co-substrates, range 0.5-5 mM

Row | Compound | inhibition at 10% glufosinate (rTsGS) | Km (N[C@@H](CCC(=O)O)C(=O)O) [µM] | Km (N) [µM]
1 | CP(=O)(O)CCC(N)C(=O)O (stereo not drawn) [glufosinate] | Both EDTA and glufosinate could inhibit the rTsGS enzyme activity | – | –
2 | rTsGS (Trichinella spiralis) | – | 200 | 170
